Measurements published in the supplement of paper PMC10724198.
± gives the standard deviation of the averaged measurements.

Each sequence was assayed on Saccharomyces cerevisiae (assay: protein stability index of tFT-peptide fusion (C-terminal peptide) (PSI (0-1 scale)); higher = more stable (slower turnover)). Settings: genetic background: wild type; temperature: 30 C.
Protocol: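 Multiplexed protein stability (MPS) profiling in S. cerevisiae. Random 12-aa peptides (tFT-X12 library) are fused to the C-terminus of a sfGFP-mCherry tandem fluorescent timer, after mCherry and a GGGS linker. Cells are FACS-sorted into 8 mCherry/sfGFP bins and deep-sequenced. The protein stability index (PSI) is the read-weighted bin average, scaled from 0 (unstable) to 1 (stable). Only peptides with >10 reads are reported; cells were grown at 30 °C in SC-His with glucose.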
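Also: PSI is a weighted mean of sequencing reads over stability bins, variants kept only with over 10 reads, mCherry proximal and sfGFP distal, peptide attached via GGGS linker.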

First: CSNGVPLTVLLM
Second: QTRYAPCQRAPT
The protein stability index of the first is lower: 0.525 ± 0.0057 for the first, 0.645 ± 0.08 for the second.

NLFDHIHRSTPS and AAIPPPLHTWRY are within error of each other in protein stability index: 0.761 ± 0.0078 for the first, 0.722 ± 0.054 for the second.

First: CFLSFLLFSSSP
Second: DDGGSVTERDKS
The protein stability index of the first is lower: 0.558 ± 0.025 for the first, 0.649 ± 0.007 for the second.

First: SPPSSPHPPPRT
Second: FMFELSPVDEWA
The protein stability index of the first is lower: 0.693 ± 0.01 for the first, 0.791 ± 0.043 for the second.

VSCNRGAYVRSR and VWTATLRPPGHP are within error of each other in protein stability index: 0.6776 ± 0.0053 for the first, 0.655 ± 0.068 for the second.

First: PLSLIRFSAFQS
Second: WRLVREGRMRGG
The protein stability index of the first is lower: 0.486 ± 0.036 for the first, 0.742 ± 0.031 for the second.

GGRFGLGGRLVG and IRPSNLRPPSYL are within error of each other in protein stability index: 0.658 ± 0.05 for the first, 0.682 ± 0.022 for the second.

GCRGEGGWVGRG and FRFSSTGRSFVS are within error of each other in protein stability index: 0.6955 ± 0.0029 for the first, 0.6917 ± 0.0029 for the second.

First: RPNWSRFTSIYA
Second: ELLTCSSSVMLL
The protein stability index of the first is lower: 0.653 ± 0.016 for the first, 0.799 ± 0.026 for the second.

RQYCTRDHNIIK and YQRENYERKGYR are within error of each other in protein stability index: 0.732 ± 0.025 for the first, 0.681 ± 0.067 for the second.

VYRLYPLSPLLY and RGRGGDERSVRG are within error of each other in protein stability index: 0.679 ± 0.12 for the first, 0.644 ± 0.013 for the second.

EYRTAIYFQSLL and GGCNLLGRGPDF are within error of each other in protein stability index: 0.701 ± 0.076 for the first, 0.694 ± 0.024 for the second.

First: VCVVALCLPHLP
Second: IGLRCPPPKPYA
The protein stability index of the first is lower: 0.583 ± 0.012 for the first, 0.696 ± 0.035 for the second.

VCESAGERVMGG and VRWSEVGMGVWR are within error of each other in protein stability index: 0.705 ± 0.051 for the first, 0.708 ± 0.014 for the second.

ITSSPSSPPAPP and VWAWGACPRGEG are within error of each other in protein stability index: 0.634 ± 0.0096 for the first, 0.6429 ± 0.0016 for the second.

First: SPSLSPSPPSPS
Second: DQRRWLWGGILK
The protein stability index of the first is lower: 0.6699 ± 0.0039 for the first, 0.707 ± 0.018 for the second.

ISILPDSIGQGA and GPWAGVRAEVKA are within error of each other in protein stability index: 0.687 ± 0.055 for the first, 0.6505 ± 0.0047 for the second.

VPPPLRLWPLPV and LPAEGSTKSRSY are within error of each other in protein stability index: 0.618 ± 0.076 for the first, 0.741 ± 0.055 for the second.

First: GWRHFVLFWCGL
Second: HSSPHFTTTKTP
The protein stability index of the first is higher: 0.752 ± 0.022 for the first, 0.7081 ± 0.0016 for the second.

EQGAGFWVGGEV and PPSPSSLLFLLS are within error of each other in protein stability index: 0.757 ± 0.099 for the first, 0.7043 ± 0.0028 for the second.

DVYFHTRSCGTP and TSASLLLSFAVP are within error of each other in protein stability index: 0.688 ± 0.016 for the first, 0.6768 ± 0.0022 for the second.

First: CVSTYLTCSITS
Second: LPHPRLPSPPGP
The protein stability index of the first is lower: 0.54 ± 0.022 for the first, 0.6858 ± 0.0056 for the second.

ACSPGHCTTGTS and QLPGTVVRYTLF are within error of each other in protein stability index: 0.649 ± 0.021 for the first, 0.6408 ± 0.0041 for the second.

Compared with RRPRIANIETDY, SCRGKTRPASGR is lower in protein stability index: 0.678 ± 0.0046 for the first, 0.64 ± 0.027 for the second.

NITIEGVELERV and GGSRGGTFLWGP are within error of each other in protein stability index: 0.715 ± 0.029 for the first, 0.672 ± 0.036 for the second.

Going from PFPPPRPPPAPP to PVVRISRLSFFA, the protein stability index rises from 0.613 ± 0.023 to 0.674 ± 0.007.

First: SGASPSPPRTLS
Second: IWLVRLSCARAF
The protein stability index of the first is higher: 0.7493 ± 0.0017 for the first, 0.5374 ± 0.0019 for the second.

LGGWWVWSWGRG and EMGTTMATPCDH are within error of each other in protein stability index: 0.66 ± 0.023 for the first, 0.681 ± 0.0073 for the second.

ARRTSAGVWCTA and ALSFFGSCCLPF are within error of each other in protein stability index: 0.705 ± 0.04 for the first, 0.748 ± 0.014 for the second.

Compared with VGACGWRGWCVV, RGWKGGLSLGEI is lower in protein stability index: 0.664 ± 0.011 for the first, 0.586 ± 0.021 for the second.

Going from VLTFVWLVGQGF to PPNPLPPAFTPP, the protein stability index rises from 0.581 ± 0.048 to 0.715 ± 0.027.

First: SDVAGRCFFVVI
Second: GGRCAERSDWCG
The protein stability index of the first is lower: 0.589 ± 0.033 for the first, 0.647 ± 0.016 for the second.

DCYFNVHFKSIG and STQELHYCFVCL are within error of each other in protein stability index: 0.654 ± 0.074 for the first, 0.59 ± 0.022 for the second.

PPPPPPPLPRSP and GVKSSRRSLHGS are within error of each other in protein stability index: 0.721 ± 0.039 for the first, 0.738 ± 0.037 for the second.

GWAIKGPFTLRS and LESGSARLFLWI are within error of each other in protein stability index: 0.663 ± 0.044 for the first, 0.746 ± 0.16 for the second.

GWMGGFLVMSID and WFNAGAGDLGSV are within error of each other in protein stability index: 0.686 ± 0.037 for the first, 0.709 ± 0.033 for the second.

CLRRTSLEDRRR and PLLPSPLIPFSH are within error of each other in protein stability index: 0.704 ± 0.037 for the first, 0.688 ± 0.026 for the second.

First: LVGLNNSFVSKA
Second: PPPPAPYRPPSC
The protein stability index of the first is lower: 0.6448 ± 0.0039 for the first, 0.682 ± 0.0054 for the second.

Going from LHPPLTLTFYLS to GDSKTKDEMYKI, the protein stability index rises from 0.555 ± 0.0089 to 0.6867 ± 0.0045.

First: FAHSPPPHLSVR
Second: RYAEVGSLVSFL
The protein stability index of the first is lower: 0.624 ± 0.014 for the first, 0.714 ± 0.0087 for the second.

Work on TLQRARTGSTPK yielded a protein stability index of 0.684 ± 0.055.
